Legend:
[1] = target: H-NSΔs2 with an N-terminal mCherry fusion (mChH-NSΔs2) (Salmonella typhimurium) (UniProt P0A1S2); experiment: dynamic light scattering; hydrodynamic radius against temperature, 5 to 60°C; protein at 125 to 500 μM; 150, 250 or 500 mM NaCl; pH 6, 7 or 8 (100 mM MES, MOPS or HEPES)
[2] = tested on: H-NS full length (H-NSFL); experiment: MST; conditions: room temperature (25 C), 50 mM NaCl, 2 mM Mg2+, MST: 50 mM Tris-HCl, 2 mM MgCl2, 0.005% Tween-20, pH not stated, anisotropy: 20 mM HEPES pH 7.5, 50 mM NaCl, 2 mM MgCl2, 25 or 37 C, 20 nM DNA
[3] = tested on: H-NS full length (H-NSFL); experiment: fluorescence anisotropy; conditions: 25 C, 50 mM NaCl, 2 mM Mg2+, MST: 50 mM Tris-HCl, 2 mM MgCl2, 0.005% Tween-20, pH not stated, anisotropy: 20 mM HEPES pH 7.5, 50 mM NaCl, 2 mM MgCl2, 25 or 37 C, 20 nM DNA
[4] = tested on: H-NS C-terminal region 84-137; experiment: MST; conditions: MST: 50 mM Tris-HCl, 50 mM NaCl, 2 mM MgCl2, 0.005% Tween-20, pH not stated; anisotropy: 20 mM HEPES pH 7.5, 50 mM NaCl, 2 mM MgCl2, 25 or 37 C, 20 nM DNA
[5] = target: H-NS C-terminus (84–137) (Salmonella typhimurium) (UniProt P0A1S2); experiment: MST; 20 nM NT-647-labelled H-NS C-terminus, serial dilutions of the unlabelled partner; 50 mM Tris-HCl, 50 mM NaCl, 2 mM MgCl2, 0.005% Tween-20; 30 min incubation; single-binding-site fit; also repeated at 100, 250, 500 and 1000 mM NaCl
[6] = target: the molecule itself; experiment: SAXS; H-NS 2-57,C21S in solution at 1-4 mg/ml, 10 to 42°C and a range of salt and buffer conditions (150 mM NaCl, 1 mM EDTA, 20 mM Tris pH 7.5 in Figure 2B); patterns compared with parallel and antiparallel site1 dimer models

H-NSΔs2 with an N-terminal mCherry fusion (mChH-NSΔs2) (from UniProt P0A1S2 1-137) (natural protein)
stoichiometry N [1]: 2

101 bp DNA with four consensus H-NS motifs
Kd [2]: 7.4 µM | Kd [3]: 10.2 µM

13 bp AT-rich DNA
Kd [4]: 14.5 µM

H-NS N-terminus (2–57), unlabelled, pET-M construct with N-terminal His6-tag (from UniProt P0A1S2 2-57) (domain or fragment)
Kd [5]: 4.1 µM

B1: Salmonella typhimurium H-NS_(2–57,C21S) (domain or fragment)
chain: SEALKILNNIRTLRAQARESTLETLEEMLEKLEVVVNERREEESAAAAEVEERTRK
notes: H-NS, Salmonella typhimurium, residues 2-57 (site1) with C21S
stoichiometry N [6]: 2

— paper PMC6411929, “H-NS uses an autoinhibitory conformational switch for environment-controlled gene silencing” (Nucleic Acids Research, 2018)
